Results from patent publication US9458427B2, “IFNγR2 compositions and methods of inhibiting neuronal cell death” (Case Western Reserve University, priority 2009, dated 2016).

Tests used:
[1] = test system: HT1080 (IFNγR2 null mutant and JAK2 null mutant) cells; test: Etoposide-induced apoptosis in HT1080-derived IFNγR2 null and Jak2 null cells (Hoechst nuclear staining); assay type: cell-based, human; details: cells lacking IFNγR2 and Jak2, 10 μM etoposide for 24 h
Method: HT1080 (wild type, IFNγR2 null mutant and JAK2 null mutant) cells were cultured in Dulbecco's Modified Eagle's Medium (DMEM) supplemented with 10% fetal bovine serum (FBS). HeLa, Human Embryonic Kidney (HEK) 293 and HEK293T cells were purchased from ATCC, and cultured in DMEM supplemented with 10% FBS. LNCap and PC3 cells were purchased from ATCC and cultured in DMEM F12 medium supplemented with 10% FBS. RWPE1 and RWPE2 were purchased from ATCC and cultured in keratinocytes-SFM plus supplements medium (Gibco). Primary mammary epithelial (4A100) cultures were derived from organoids isolated from discarded mammary tissue acquired from patients undergoing reduction mammoplasty surgery. Anonymized specimens were acquired from patients who had given written consent, through the Tissue Procurement and Histology Core Facility of the Case Comprehensive Cancer Center (Case), under a Case CCC IRB approved protocol. Primary epithelial cultures were grown in M87A+X medium. Human HME1 cells (Clontech) were grown in medium 171 with mammary epithelial growth supplement (Cascade Biologics) and penicillin-streptomycin.42 Human breast cancer cell line MDA-MD468 was cultured in RPMI, 5% FBS, supplemented with L-glutamine, penicillin-streptomycin and fungizone (Gibco). […]
Cells were cultured overnight in DMEM supplemented with 10% FBS. […] Transfection efficiency was analyzed by the expression of the EGFP-tagged proteins.
(§1) Apoptosis was induced by transfecting the cells with pcDNA3-human Bax, or pcDNA3-human Bak, or pcDNA3-human Bim EL, or by treatment with etoposide (10 μM) or staurosporine (100 nM). To determine the induction of apoptosis by different apoptotic stresses, cells were stained with Hoechst 33258 dye, and the numbers of cells with apoptotic nuclei were counted using fluorescence microscopy. Three hundred cells were analyzed in triplicate samples. […] Caspase activity were measured by using a fluorogenic caspase 3 substrate II (Calbiochem), IFNγR2 constructs were cloned in pEGFP-C2 (IFNγR2wild type, IFNγR21-295 and IFNγR2296-337) vector.

Caspase 3 = test: Etoposide-induced Caspase 3 activation in IFNγR2 null cells; assay type: cell-based, human; details: 10 μM etoposide for 24 h, plasmid-mediated expression
Method: as §1

human Bim EL = test: Apoptosis induced by Bim overexpression in HEK293T cells; assay type: cell-based; details: 24 h after transfection
Method: (§2) Cells were cultured overnight in DMEM supplemented with 10% FBS. The transfections were performed using […]® (Qiagen, Valencia, Calif.) in accordance with the manufacturer's instructions. Transfection efficiency was analyzed by the expression of the EGFP-tagged proteins.
as §1
(§3) For Bax, Bak or Bim EL overexpression, cells were transfected with either 1 μg pcDNA3-human Bax, 1 μg pcDNA3-human Bak, or 1 μg pcDNA3 human Bim EL, and 4 μg of pEGFP plasmid encoding IFNγR2, and the apoptosis or caspase activity was determined 24 h after the transfection.

human Bak = molecular target: T1, human Bak (Homo sapiens, UniProt Q16611); test: Apoptosis induced by Bak overexpression in HEK293 cells; assay type: cell-based; details: 24 h after transfection
T1 construct: expressed in transfected cells; host or cells: HEK293
T1 sequence (Q16611 1-211): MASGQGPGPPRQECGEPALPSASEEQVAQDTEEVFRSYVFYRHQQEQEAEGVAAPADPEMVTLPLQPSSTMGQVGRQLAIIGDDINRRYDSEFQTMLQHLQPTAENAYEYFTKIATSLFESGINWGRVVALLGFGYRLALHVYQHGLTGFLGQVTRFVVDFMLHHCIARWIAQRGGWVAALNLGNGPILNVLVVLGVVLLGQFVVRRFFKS
Method: as §2, §1, §3

Bax [2] = molecular target: T2, Bax (Homo sapiens, UniProt Q07812); test: Staurosporine-induced Bax activation in HeLa cells (6A7 antibody immunostaining); assay type: cell-based; set-up: endogenous in cells; host or cells: HeLa; details: staurosporine 100 nM, 3 h
T2 sequence (Q07812 whole entry): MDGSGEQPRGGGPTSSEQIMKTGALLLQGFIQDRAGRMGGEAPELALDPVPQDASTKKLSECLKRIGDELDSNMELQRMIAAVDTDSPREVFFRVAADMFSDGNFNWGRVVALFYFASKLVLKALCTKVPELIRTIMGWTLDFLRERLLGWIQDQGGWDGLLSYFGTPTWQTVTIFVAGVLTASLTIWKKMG
Method: HeLa cells were transiently transfected with pEGFP-C2-IFNγR2 (wild type 1-295, or 296-337) using […]® (Qiagen, Valencia, Calif.) in accordance with the manufacturer's instructions. Four micograms of the plasmid were used to transfect cells cultured in 6-cm diameter dishes. After 24 h of transfection, the cells were treated with staurosporine (100 nM) for 3 h. Then, the cells were washed with phosphate buffer pH 7.4 (PBS), fixed using paraformaldehyde (1%), permeabilized with Triton X-100 (0.02%), blocked with goat serum, and the activation of Bax was analyzed by immunocytochemistry using monoclonal Bax 6A7 antibody (BDPharmingen) and ALEXA FLUOR® 568-labeled anti-mouse IgG secondary antibody (Invitrogen).

Bax [3] = molecular target: T2, Bax; test: Apoptosis induced by Bax overexpression in HEK293 cells (Hoechst nuclear staining); assay type: cell-based; set-up: expressed in transfected cells; host or cells: HEK293; details: HEK293 cells co-transfected with pcDNA3-h Bax and pEGFP-C2-IFNγR2 construct, 24 h after transfection
Method: as §2, §1, §3

Inhibition of STS-induced Bax activation (6A7 Ab-positive cells in GFP-positive cells) (Bax [2]): inhibited STS-induced Bax activation
B1: IFNγR2wild type: interferon gamma receptor beta chain, full length, expressed from pEGFP-C2 plasmid as EGFP fusion (protein)
chain: APPDPLSQLPAPQHPKIRLYNAEQVLSWEPVALSNSTRPVVYQVQFKYTDSKWFTADIMSIGVNCTQITATECDFTAASPSAGFPMDFNVTLRLRAELGALHSAWVTMPWFQHYRNVTVGPPENIEVTPGEGSLIIRFSSPFDIADTSTAFFCYYVHYWEKGGIQQVKGPFRSNSISLDNLKPSRVYCLQVQAQLLWNKSNIFRVGHLSNISCYETMADASTELQQVILISVGTFSLLSVLAGACFFLVLKYRGLIKYWFHTPPSIPLQIEEYLKDPTQPILEALDKDSSPKDDVWDSVSIISFPEKEQEDVLQTL
modifications: left off: large carriers
notes: interferon gamma receptor beta chain, full length, expressed from pEGFP-C2 plasmid as EGFP fusion
Inhibition of etoposide-induced apoptosis [1]: able to inhibit etoposide-induced apoptosis
Inhibition of etoposide-induced Caspase 3 activation (Caspase 3): inhibited etoposide-induced Caspase 3 activation
Inhibition of apoptosis induced by Bim overexpression (human Bim EL): able to inhibit apoptosis induced by Bim overexpression
Rescue from apoptosis induced by Bak overexpression (human Bak): could not rescue cells from apoptosis induced by Bak overexpression
Inhibition of apoptosis induced by Bax overexpression (Bax [3]): able to inhibit apoptosis induced by Bax overexpression
